{"source": "a protein production outcome set (Wang et al. 2014)"}
{"assay": "label from the status in PepcDB records"}
{"sequence": "MKFTQRLSLRVRLTLIFLILASVTWLLSSFVAWKQTTDNVDELFDTQLMLFAKRLSTLDLNEINAADRMAQTPNKLKHGHVDDDALTFAIFTHDGRMVLNDGDNGEDIPYSYQREGFADGQLVGEDDPWRFVWMTSPDGKYRIVVGQEWEYREDMALAIVAGQLIPWLVALPIMLIIMMVLLGRELAPLNKLALALRMRDPDSEKPLNATGVPSEVRPLVESLNQLFARTHAMMVRERRFTSDAAHELRSPLTALKVQTEVAQLSDDDPQARKKALLQLHSGIDRATRLVDQLLTLSRLDSLDNLQDVAEIPLEDLLQSSVMDIYHTAQQAKIDVRLTLNAHGIKRTGQPLLLSLLVRNLLDNGPGVTPEALARIGERFYRPPGQTATGSGLGLSIVQRIAKLHDMNVEFGNAEQGGFEAKVSW", "protein production": "failed"}
{"sequence": "MKFYNREKEVAELKRVQELAFTQNSRMIVVTGRRRIGKTSLIKEALKGTPTVYLFIGRKAESILVTDFVKIVRETLSIFVPEGIPTFTNLMQYLFEVGKTRAFNIVIDEFQEFYNIRPDVFSDMQNLWDEYKQETKINLVISGSVYSLMQKIFTDHNEPLFGRADNILCLRAFKIGVLKQIMEDLASGYSNDDLLALYTLTGGIPKYVELFCDNQALTIDKMYDFVFSENSLFIDEGRNLLITEFGKNYGTYFSILSEIANGHYTQGEIESALGGTAIGGYLSKLENVYNLITRERPIFAKPGTKKNVRYVIGDNFLNFWFKYIEQNRSYIELQNFDDLRQLAKADYPTYSGRVLEKYFKQKLAETGGFKEIGSWWETKSSIGKQRINSYEIDIVALKSSGKKALIAEVKRVPENNYSHTVFMEKVEHLKQKEMSKYDIETQVLGLKDMLEHHHHHH", "protein production": "failed"}
{"sequence": "MKGDRHCIVIIDMLNDFIGPNAPLRCPDGEKIVPNLQKLVEFAHENGINVVFVQEAHRKNDADFRVRPVHAVKGTWGSDFIPELRPDEEKGDYIVQKRRHSAFAYTDLDLYLREEKIDTVVVTGVWTNVCVRSTASDALYHAYNVIAISDCCASANEEMHQAGLRDMALFAEVMTLEEYMKEWPNREGAKK", "protein production": "not failed"}
{"sequence": "MKGDRTLSCMIKTDRGEICIDPAEPILHIIGKKYAIFIVSVLGNDNTRKNFNDLMRAVPGISSTMLSARLHEMNECGLIERHEGDIVTYELTERGREIRKRMLPLIEYLADAD", "protein production": "failed"}
{"sequence": "MKGENAMEHHTSVLSLMVVVAIAFFVPLLLQRFKLKALPVVVAEIIAGIFVGKSGFNIIEPDIWLQVLSTLGFIFLMFLSGLEIDFSIFKQKGKKNTTNEPNTFQAASIIFLFIFILSYALSLLFVWLGFVDNAMFMTLIISTISLGVVVPTLKENNLGKTAIGQIILLVAVIADLVTMILLAVFVGLNSESGQSMWLLLLLFGAGIVIYFVAKRFKNIPYLDSLKAGSVQIDTRAVFALILILVGLSESVGAENILGAFLAGVLVSLLSPNEDMVEKLDSIGYGFFIPIFFVMVGVNLEVWSIFKEPSSMLMIPILIVGLFISKLLPSLVLRKWYPRNIVLGSAILLTSTLSLVIAAAQIGEKLEIISPSLSVSLILSAVITCIFAPILFKKMFPKVETPKPKVAIIGASRITLPLSLDLKREDYDVTLYMMRQNKINDEEATSHDFPIVKLDDITIASLTEQTAFDADRVVVATSDDEQNLLLAEHAKELGVEHVIASVEDPLLQEKATQEHIAVFSTINSTRILLRALIDKPSLVRLITTANETVREVELRSNKYNGVALRRLPFLGDVLVIQIYRGNKALIPHGDTRLQHGDTLLVTGSKEHIDTLKNILE", "protein production": "failed"}
{"sequence": "MKGGLYMKLTKKQLKEYIEDYKKSDDILINLYIETYEFYCRLRDELKNSDLMIEHTNKAGASNIVKNPLSIELTKTVQTLNNLLKSMGLTAAQRKKIVQEEGGFGDY", "protein production": "failed"}
{"sequence": "MKGGTIQISWHDGKPVLTVDFHPISGLLATAGADYDIKLWLINSGQAEKKVPSVSYQSSLTYHGCAVNTIRFSPSGELLASGADGGELFIWKLHPSETNQSWKVHKSLSFHRKDVLDLQWSPDDAYLISGSVDNSCIIWDVNKGSVHQILDAHCHYVQGVAWDPLAKYVASLSSDRTCRIYANKPQTKSKGVEKMNYVCQHVIMKADQQRGDETKTIKTHLFHDETLPSFFRRLSWSPDGSFLLIPAGSFKVSPTSEAVNATYVFSRKDLSRPALQLPGASKPVVVVRFCPVAFKLRGSSSEEGFFKLPYRLVFAIATLNSVYIYDTECVAPIAVLAGLHYAAITDITWSPNASYLALSSQDGYCTLVEFEDKELGEAVSISGLLLVLSLLNLPEPD", "protein production": "failed"}
{"sequence": "MKGLERESHFTLNENAMFFECAYSCDNALFLQLDDRSFFITDSRYTQEAKESVQPKNGVLAEVVESSDLVQSAIDLIVKSSVKKLFFDPNQVNLQTYKRLNSALGDKVALEGVPSYHRQKRIIKNEHEIQLLKKSQALNVEAFENFAEYVKKIFDEKESLSERYLQHKVKDFLTREGVYDLSFEPILALNANASKPHALPSAKDFLKAEHSILLDMGIKYERYCSDRTRTAFFDPKDFVFKREQSFKDKERQKIYDIVKEAQEKAISGIRAGMTGKEADSLARGVISDYGYGQYFTHSTGHGIGLDIHELPYISSRSETILEEGMVFSVEPGIYIPGFFGVRIEDLVVIKNSRSELL", "protein production": "failed"}
{"sequence": "MKGLFKNKSRLPGEIVRQTRDLIALAESEEEETDARNSKRLGICAELCRNIRDLKSILYGNGEAEPVPEACLLLTQEFFRADTLRPLIKSIPKLDLEARKDATQIVANLQKQQVEFRLVASEYLESNLDVIDSLVEGIDHDHELALHYTGMLKECVRHQVVAKYILESKNLEKFFDYVQLPYFDVATDASKIFRELLTRHKSTVAEYLAKNYEWFFAEYNTKLLEKGSYFTKRQASKLLGDVLMDRSNSGVMVKYVSSLDNLRIMMNLLREPTKNIQLEAFHIFKLFVANENKPEDIVAILVANRTKILRLFADLKPEKEDVGFETDKALVMNEIATLSLLDIKTADR", "protein production": "failed"}
{"sequence": "MKGLLPLAWFLACSVPAVQGGLLDLKSMIEKVTGKNALTNYGFYGCYCGWGGRGTPKDGTDWCCWAHDHCYGRLEEKGCNIRTQSYKYRFAWGVVTCEPGPFCHVNLCACDRKLVYCLKRNLRSYNPQYQYFPNILCS", "protein production": "failed"}
{"sequence": "MKGMKYHDYIWDLGGTLLDNYETSTAAFVETLALYGITQDHDSVYQALKVSTPFAIETFAPNLENFLEKYKENEARELEHPILFEGVSDLLEDISNQGGRHFLVSHRNDQVLEILEKTSIAAYFTEVVTSSSGFKRKPNPESMLYLREKYQISSGLVIGDRPIDIEAGQAAGLDTHLFTSIVNLRQVLDI", "protein production": "not failed"}
{"sequence": "MKHEWRKFEKELYGVKAKPIFLEVEEQRFITIKGKGNPNDQDFSNRVSALYALAYGIKMAYKQAMKTEQDDRAVTDFAVYPLEGLWQQAKDAKEDTLEKDKLSYTIMIRQPEFITKELVDQALDRVKIKKPNSFYESISFESIKDGKCIQVLHIGSYDDEPQSFAKMDAFAKEHGLKRSSDIHREIYLSNAQRTEKSKLKTILRYQVEEK", "protein production": "failed"}
{"sequence": "MKHMEKFANHFGYNRMFAKDQLTLGVHIPIENYQFHAPTMEKQVELVQKAEQYGFTGVWLRDVLLQDPDFGDPATGQIYDMMIYLTYLASKTEKIAFGTSATVLSLRHPLRVAKEIATLDQLFPERIMLGVSSGDRRADFKALGVSHETRGEKFREAFAYLEEILYKNFPSIQSTLGEVHGANLVPKPSKRVPTFITGFSQQNMEWFAEHGDGWMYYPRSPVHQAGAIGQWRELVEDYHPDVFKPFIQPMHLDLSEDPNERPTPIRLGYRTGRKALIELLDIYKSIGVNHLFLALFDGQRPADEVLDELGEEVLPHFPAL", "protein production": "not failed"}
{"sequence": "MKHPLQDMFTSAIEAVARDSGWAELSAVGSYLAKNDPSFDPRNWGHGRLSQMVKKLDFLTVQESRNGSKLHSEIRLRHDGLEHHHHHH", "protein production": "not failed"}
{"sequence": "MKHYFSCLKGDTIKAIFLVCLAVGVVGMSYGSLAMAYGFPLWVPFVLSIFVLAGASEFMFIGIVASGGNPLAAAAAGLLVNARHVPFGVTVRDLVGTRAASFFGCHIMNDESVVFGLSQKTPEQRKAAYWLCGLGVALFWPIGTLIGAGVGKLLPAPETIGLDAVFPAILLALVIPAFKNRTTLIRGCSGAALSLAAVPFVAAGLPVLLSLLGLLARKK", "protein production": "failed"}
{"sequence": "MKIALIGASGYVGSALLKEALSRGHHVTALVSRPERIAAQANLAAAKVDVQDSAQLAEQLKGFDAVLSAFSGHAQAEQFDYFVKGIRSIIAAAKAAQAPRLLVVGGAGSLEVAPGVQLVDTPEFPEQWKASALGAREALNLLRAETELNWTLLSPSAMLQPGQRTGQFRLGKDQLLVDAEGNSHISVEDYAVAMIDELEKGEHQRSRFTVGYLEHHHHHH", "protein production": "not failed"}
{"sequence": "MKIATYNVRVDTEYDQDWQWSFRKEAVCQLINFHDWSLCCIQEVRPNQVRDLKAYTTFTCLSAEREGDGQGEGLAILYNEQKVQAIDTGYFWLSETPQQPSIHPEAGCPRIALWGLFKETTQNTPFLVINVHLDHISAHARLAGMTVILEELHDKIAQYPTLLMGDFNAESGEEVHQLVQKKFQDSKNLATHYGPRGTFQNFTYTKPWAELEEIDYIYVKGWQVQQTASLTDSIDGRFPSDHFPLEAEV", "protein production": "not failed"}
{"sequence": "MKIAVLGATGRAGSAIVAEARRRGHEVLAVVRDPQKAADRLGATVATLVKEPLVLTEADLDSVDAVVDALSVPWGSGRGYLHLDFATHLVSLLRNSDTLAVFILGSASLAMPGADHPMILDFPESAASQPWYDGALYQYYEYQFLQMNANVNWIGISPSEAFPSGPATSYVAGKDTLLVGEDGQSHITTGNMALAILDQLEHPTAIRDRIVVRDADLEHHHHHH", "protein production": "not failed"}
{"sequence": "MKIDILDKGFVELVDVMGNDLSAVRAARVSFDMGLKDEERDRHLIEYLMKHGHETPFEHIVFTFHVKAPIFVARQWFRHRIASYNELSGRYSKLSYEFYIPSPERLEGYKTTIPPERVTEKISEIVDKAYRTYLELIESGVPREVARIVLPLNLYTRFFWTVNARSLMNFLNLRADSHAQWEIQQYALAIARIFKEKCPWTFEAFLKYAYKGDILKEVQV", "protein production": "not failed"}
{"sequence": "MKIDLIISADDIKEEKVKNKTAVVIDMLRATSVITTALNNGCKRVVPVLTVEEALKKVKEYGKDAILGGERKGLKIEGFDFSNSPMEYTEDVVKGKTLIMTTTNGTRAIKGSETARDILIGSVLNGEAVAEKIVELNNDVVIVNAGTYGEFSIDDFICSGYIINCVMDRMKKLELTDAATTAQYVYKTNEDIKGFVKYAKHYKRIMELGLKKDFEYCCKKDIVKLVPQYTNGEIL", "protein production": "not failed"}
{"sequence": "MKIGIMSDTHDHLPNIRKAIEIFNDENVETVIHCGDFVSLFVIKEFENLNANIIATYGNNDGERCKLKEWLKDINEENIIDDFISVEIDDLKFFITHGHHQSVLEMAIKSGLYDVVIYGHTHERVFEEVDDVLVINPGECCGYLTGIPTIGILDTEKKEYREIVLE", "protein production": "not failed"}
{"sequence": "MKIGVIQASTRTDLNQLLFEAVKQAAGNQHEIVNFGVFPQETENYSYVEVAIMISLLIETGAIDFMVSGCSSGQGMMMACNSLPGLQAGFIQTPQDAFLFGRINNGNVASLSLGLNFGWAGELNLQYALNELFHGEFGIGYPPEVAERKREEAQLLLTLNDITKKSFLEIIDQLDKALLFKILKRKDLTAYLFDYGSNSLLLERLQFFRN", "protein production": "failed"}
{"sequence": "MKIIAFYLPQFHQIKENDRWWGKGFTEWTNTKSAQPLFSGHYQPREPYQDFYYDLTTPSVRKWQAEIAKAYGIYGFCYYHYWFKGKRLLETPFNEVLKMKEPDFPFCLSWANEPWTKSWDGLDKHILMPQDYGDISDWKEHFDYLLQAFQDERYIYIDDKPLFIIYRPGHIPDCEKMLNYWNALARANGLKGIYFAETLNSFPLPNINGFDASIQFEPFYTIAHDSSSDINKVIYDSDMQLNVWDYDKVWMYILQRSLPKKKTFPGAFVDWDNTARRKNANSSIFVGSTPEKFTIYLSKQIHRTYSFYNSEFLFINAWNEWAEGTYLEPDKKYGFSYLEGVKNAIDRGMKAYKKDESFLEHHHHHH", "protein production": "not failed"}
{"sequence": "MKIIGIIQARTGSKRLKNKVLLKLGDRCILEILLERLKKSKKLDDIIVATTIKKEDNAIVELCNSLGVNVFRGSEKDVLDRFYNASKFYSGDVIVRITGDNPLTSIELIDKQVEYLLKNNFDYVSTKNIILGLSSEVFTFDALEKAWKNAKEKYQREHVTPYIYENPNLFKVFYLEPPEYLKREGIRLTIDTIKDFKLYLELQKHFDLINVDIRQIIDFLDKNPQIKNINSNVRQKSYREVEE", "protein production": "failed"}
